Data: US20190023741A1

Experiments:
Aβ11-29 = biological target: T1, Aβ11-29
T1 sequence (peptide): EVHHQKLVFFAEDVGSNKG

B1: ANA-SA5 (peptide)
peptide: SKGQA
Aβ1-20
Chain of Aβ1-20 (peptide, as listed by the source): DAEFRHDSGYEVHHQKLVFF
  hydrolysis activity: remaining HPLC peak of the substrate: 49.6%
Aβ11-29
  hydrolysis activity: remaining HPLC peak of the substrate: 72%
